From patent US20220176020A1, “Improved Bone Implant Matrix Comprising Proline-Rich Peptide And Method Of Preparing The Same” (Industrie Biomediche Insubri S.A., priority 2019, published 2022) come the findings set out here.

The nature of series [1]: Release profile of FITC-labelled PRP from SBP in 10 ml purified water. It counts as physicochemical. The conditions noted are these: for period of highest release rate / release of peptide: 10 ml purified water; for release of peptide: FITC on C- or N-terminal. The method, then: For 4 days the solution was analysed every 24 h using UV-vis, then 48 h after, and finally […] after. The water was changed every time to better simulate in vivo conditions, maximizing the drive force. Having a FITC+H2O calibration curve, the absorbance could be related to the concentration. Using a known quantity of water, the mass released could be derived from the measured concentration.
For a proper FITC release profile, also samples of bone implant matrix, identified as “SB”, reproduced according to example 3 were studied, since other components of the “SB” is likely to be released, the blank used for the spectroscopy was based on a water+“SB” solution. […] To identify the presence of “PRP” in the aqueous solution, FITC molecules were either attached to the C- or N-terminal of the peptide before loading.
Calibration was used to derive the concentration of FITC released in the water solution at the given time points. With a known quantity of water used at a given time, the mass released can be derived.
Best fit plots where made using the inbuild best-fit function of Graph (Software) assuming both a logarithmic and power function. In general, the logarithmic functions were more accurate (R^2-values closer to 1).

For series [2], the system named is MC3T3-E1 cells. The series is described as follows: Real-time PCR of osteogenic marker mRNA levels (COL1A1, ALP, OC, VEGFA). It counts as cell-based, murine. As to conditions: FIG. 10; for COL1A1 mRNA levels: after 14 days; for OC level: time at which highest/max is reached: measured at 1, 3, 7 and 14 days. The method, then:
The cells assessed was murine pre-osteoblastic cell line (MC3T3-E1) obtained from the German Collection of Micro-organisms and Cell Cultures (DSMC, Braunschweig, Germany). MC3T3-E1 cells were routinely cultured at 37° C. in a humidified atmosphere of 5% CO2, and maintained in α-MEM supplemented with 10% foetal calf serum (FCS) and antibiotics (50 IU penicillin/ml and 50 μg streptomycin/ml). Cells were subcultured 1:4 before reaching confluence using PBS and trypsin/EDTA. All experiments were performed in the same passage of the MC3T3-E1 cells.
Then, cells were maintained static at 37° C. in a humidified atmosphere of 5% CO2 for up to 14 days. The same number of cells were cultured in parallel in plastic in all the experiments.
Total RNA was isolated with Tripure (Roche Diagnostics) and RNA was quantified using a spectrophotometer set at 260 nm. Real-time PCR was performed for two reference genes and several target gene (Table) The same amount of total RNA from each sample (370 ng) was reverse transcribed to cDNA at 37° C. for 60 min in a final volume of 20 μl, using High Capacity RNA to cDNA kit (Applied Biosystems). Each cDNA was diluted 1/7 and these dilutions are used to carry on the quantitative PCR.
Real-time PCR was performed in the Lightcycler 480® (Roche Diagnostics, Germany) using SYBR green detection. For each reaction, 7 μl of Lightcycler-FastStart DNA MasterPLUS SYBR Green I, 0.5 μM of sense and antisense specific primer and 3 μl of the cDNA dilution in a final volume of 10 μl was added. The normal amplification program consisted of a preincubation step for denaturation of the template cDNA (95° C.), followed by 45 cycles consisting of a denaturation step (95° C.), an annealing step (60° C., for all expect for ALP and osterix, which were 65° C. and 68° C. respectively) and an extension step (72° C.). Real-time efficiencies were calculated from the given slopes in the LightCycler 480 software using serial dilutions.
Relative quantification after PCRWas calculated by dividing the concentration of the target gene in each sample by the mean of the concentration of the two reference genes (Housekeeping genes) in the same sample using the advanced relative quantification method provided by the LightCycler 480 analysis software version 1.5 (Roche Diagnostics, Mannheim, Germany).
On the technique in general: Quantitative PCR measures a nucleic acid by following its amplification.

No end group written: not given here. *: point of attachment. FITC = O=C1OC2(c3ccc(O)cc3Oc3cc(O)ccc32)c2ccc(NC(=S)*)cc21

In the case of “PLV PSS PLV PCC PLV PCC PSP PLPP (PLVPSSPLVPCCPLVPCCPSPPLPP; proline rich peptide) [P5, artificial Proline-Rich Peptide]”, the “period of highest release rate” value in series [1] is given as “highest release rate the two first days”. Moreover, in series [1] (after 14 days), the release of peptide fell in the range of 8.75 to 9.90 µg. Moreover, in series [2], the “COL1A1 mRNA levels” value was “drop” and the “OC level: time at which highest/max is reached” value was “fairly stable”.

For the substance “PHQ PMQ PQP PVH PMQ PLP PQP PLPP (PHQPMQPQPPVHPMQPLPPQPPLPP; proline rich peptide) [P6, artificial Proline-Rich Peptide]”, in series [2], the “COL1A1 mRNA levels” value is on record as “raised significantly” and the “OC level: time at which highest/max is reached” value was 7 days.

With “P2N: PRP version P2 (SEQ ID 4) with FITC attached on the N terminal ({FITC}-PLVPSQPLVPSQPLVPSQPQPPLPP)”, in series [1] (after 14 days, FIG. 2), the release rate result is “jump in release rate”.

Turning to “PLV PSQ PLV PSQ PLV PSQ PQP PLPP (PLVPSQPLVPSQPLVPSQPQPPLPP; proline rich peptide) [P2, artificial Proline-Rich Peptide]”, the “period of highest release rate” value in series [1] is “highest release rate the two first days”. Moreover, in series [1] (FIG. 2, comparison P2 vs P5), the initial release result is on record as “higher initial release than P5”. Moreover, the release of peptide in series [1] (after 14 days) lay in the range of 11.75 to 14.01 µg.
